In series [1] the target is T1, LfXyl43 (GH 43 β-xylosidase/α-L-arabinofuranosidase) (Limosilactobacillus fermentum, UniProt A0ABF7R1E2).
T1 construct: gene LAF_0405; recombinant rLfXyl43, 551 residues, C-terminal 6× histidine tag
T1 sequence (A0ABF7R1E2 1-551): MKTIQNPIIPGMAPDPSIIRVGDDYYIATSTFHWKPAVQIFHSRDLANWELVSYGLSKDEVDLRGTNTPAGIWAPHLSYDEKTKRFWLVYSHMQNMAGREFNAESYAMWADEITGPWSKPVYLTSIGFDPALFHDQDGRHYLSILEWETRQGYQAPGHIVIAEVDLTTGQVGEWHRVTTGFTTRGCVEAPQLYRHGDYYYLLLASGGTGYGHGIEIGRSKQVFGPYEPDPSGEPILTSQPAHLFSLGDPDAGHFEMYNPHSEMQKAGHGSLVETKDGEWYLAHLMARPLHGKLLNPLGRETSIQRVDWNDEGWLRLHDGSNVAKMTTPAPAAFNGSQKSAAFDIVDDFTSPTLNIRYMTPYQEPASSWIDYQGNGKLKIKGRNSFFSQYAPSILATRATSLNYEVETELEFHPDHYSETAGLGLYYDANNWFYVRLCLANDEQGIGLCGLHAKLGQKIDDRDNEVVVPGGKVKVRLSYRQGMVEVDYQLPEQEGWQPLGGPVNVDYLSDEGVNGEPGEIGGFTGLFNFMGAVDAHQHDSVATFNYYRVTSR
The series is described as follows: specific activity of purified enzyme at […] substrate. The series is classed as biochemical.

Substrate in series [2]: OC1OC[C@@H](O[C@@H]2OC[C@@H](O[C@@H]3OC[C@@H](O)[C@H](O)[C@H]3O)[C@H](O)[C@H]2O)[C@H](O)[C@H]1O
Put plainly: Michaelis-Menten kinetics, DNSA reducing sugar assay (Km). It is filed as biochemical, Limosilactobacillus fermentum.

Substrate in series [3]: OC1OC[C@@H](O[C@@H]2OC[C@@H](O)[C@H](O)[C@H]2O)[C@H](O)[C@H]1O
Described as above. The series is classed as biochemical, Limosilactobacillus fermentum. The conditions noted are these: catalytic pocket, subsites −[…] and +[…] (predicted).

Substrate in series [4]: OC1OC[C@@H](O[C@@H]2OC[C@@H](O[C@@H]3OC[C@@H](O[C@@H]4OC[C@@H](O)[C@H](O)[C@H]4O)[C@H](O)[C@H]3O)[C@H](O)[C@H]2O)[C@H](O)[C@H]1O
The series is described as above. Particulars: catalytic pocket, Asp15 and Glu188 at the −[…] subsite (predicted). It is filed as biochemical, Limosilactobacillus fermentum.

Substrate in series [5]: O=[N+]([O-])c1ccc(O[C@@H]2O[C@@H](CO)[C@H](O)[C@H]2O)cc1
The series is described as follows: purified protein. The series is classed as biochemical, Limosilactobacillus fermentum.

Substrate in series [6]: O=[N+]([O-])c1ccc(O[C@@H]2OC[C@@H](O)[C@H](O)[C@H]2O)cc1
Put plainly: purified protein. It is filed as biochemical, Limosilactobacillus fermentum. The conditions noted are these: catalytic pocket, Asp15, Asp129 and Glu188 (predicted).

Consider `O=[N+]([O-])c1ccccc1O[C@@H]1OC[C@@H](O)[C@H](O)[C@H]1O` [oNPX, o-nitrophenyl-β-D-xylopyranoside], for which, in series [1], the “Specific activity, U/mg” value is recorded as 3.8 ± 0.1 U/mg.

B1: LfXyl43 (GH 43 β-xylosidase/α-L-arabinofuranosidase) (Limosilactobacillus fermentum IFO 3956) (protein)
chain: MKTIQNPIIPGMAPDPSIIRVGDDYYIATSTFHWKPAVQIFHSRDLANWELVSYGLSKDEVDLRGTNTPAGIWAPHLSYDEKTKRFWLVYSHMQNMAGREFNAESYAMWADEITGPWSKPVYLTSIGFDPALFHDQDGRHYLSILEWETRQGYQAPGHIVIAEVDLTTGQVGEWHRVTTGFTTRGCVEAPQLYRHGDYYYLLLASGGTGYGHGIEIGRSKQVFGPYEPDPSGEPILTSQPAHLFSLGDPDAGHFEMYNPHSEMQKAGHGSLVETKDGEWYLAHLMARPLHGKLLNPLGRETSIQRVDWNDEGWLRLHDGSNVAKMTTPAPAAFNGSQKSAAFDIVDDFTSPTLNIRYMTPYQEPASSWIDYQGNGKLKIKGRNSFFSQYAPSILATRATSLNYEVETELEFHPDHYSETAGLGLYYDANNWFYVRLCLANDEQGIGLCGLHAKLGQKIDDRDNEVVVPGGKVKVRLSYRQGMVEVDYQLPEQEGWQPLGGPVNVDYLSDEGVNGEPGEIGGFTGLFNFMGAVDAHQHDSVATFNYYRVTSR
notes: recombinant rLfXyl43, 551 residues, C-terminal 6× histidine tag
On to B1, for which the Km is 120.2 mM in series [2]; 134.7 mM in series [3]; 84.2 mM in series [4]; 1.5 mM in series [5]; 2.0 mM in series [6]. Besides, the maximum rate (Vmax) in series [2] was 441 µmol/min/mg; in series [3], 241 µmol/min/mg; in series [4], 488 µmol/min/mg; in series [5] it was 0.4 µmol/min/mg; in series [6], 19.7 µmol/min/mg. For the same molecule, the catalytic constant (kcat) in series [2] was 3170 s⁻¹; in series [3] it was 1740 s⁻¹; in series [4] it was 3530 s⁻¹; in series [5], 2.8 s⁻¹; in series [6] it was 142 s⁻¹. For the same molecule, the kcat/Km was 26400 M⁻¹ s⁻¹ in series [2], 12900 M⁻¹ s⁻¹ in series [3], 41900 M⁻¹ s⁻¹ in series [4] and 1900 M⁻¹ s⁻¹ in series [5].

In general, Km refers to the concentration of substrate that gives half-maximal velocity. The term Vmax denotes the top rate of the reaction or transport when substrate is in excess. A word on the kcat: it is the maximal rate divided by the concentration of active sites. In general, kcat/Km refers to the second-order rate constant that governs catalysis at low substrate concentration.
